# Data published in a protein production outcome set (Wang et al. 2014).
# Assay: label from the status in PepcDB records
row,Sequence,protein production
1,MERQVLLSEPEEAAALYRGLSRQPALSAACLGPEVTTQYGGQYRTVHTEWTQRDLERMENIRFCRQYLVFHDGDSVVFAGPAGNSVETRGELLSRESPSGTMKAVLRKAGGTGPGEEKQFLEVWEKNRKLKSFNLSALEKHGPVYEDDCFGCLSWSHSETHLLYVAEKKRPKAESFFQTKALDVSASDDEIARLKKPDQAIKGDQFVFYEDWGENMVSKSIPVLCVLDVESGNISVLEGVPENVSPGQAFWAPGDAGVVFVGWWHEPFRLGIRFCTNRRSALYYVDLIGGKCELLSDDSLAVSSPRLSPDQCRIVYLQYPSLIPHHQCSQLCLYDWYTKVTSVVVDVVPRQLGENFSGIYCSLLPLGCWSADSQRVVFDSAQRSRQDLFAVDTQVGTVTSLTAGGSGGSWKLLTIDQDLMVAQFSTPSLPPTLKVGFLPSAGKEQSVLWVSLEEAEPIPDIHWGIRVLQPPPEQENVQYAGLDFEAILLQPGSPPDKTQVPMVVMPHGGPHSSFVTAWMLFPAMLCKMGFAVLLVNYRGSTGFGQDSILSLPGNVGHQDVKDVQFAVEQVLQEEHFDASHVALMGGSHGGFISCHLIGQYPETYRACVARNPVINIASMLGSTDIPDWCVVEAGFPFSSDCLPDLSVWAEMLDKSPIRYIPQVKTPLLLMLGQEDRRVPFKQGMEYYRALKTRNVPVRLLLYPKSTHALSEVEVESDSFMNAVLWLRTHLGS,failed
2,MERRLTTILAADLSGYSRLMAADEEGTVTRLRHLFADIVRPDLSREGGRLIKTMGDGMLVEFASPVAALRSAVAILQQVARDQVETAPDTRMLFRVGIHLGDVISDGDDILGDAVNIAARLESLATPGGICISRSVHDQVRGKVDAELIELGPQPVKNIPDPVEVWRVGAEGIACAAEKPAVRAELPAVVILPFDNMSADPEQDFLADGIVEDVTTELSRFRTLTVIARNSAFAYKGSHKDVRQIAEELGVRYVVEGSVRRAGDRLRATAQLIDARTGAHVWADRWDRTMADLFDLQDELTAAILSGVEPELGAHERNLARRKPTDSLTAWEMCQKGYSEFTRYTDEGYSQAHAYYTRAIAADPDFALPHALLARLAWVKVITGRTRDPAAEISTGLDHAAQAIERDDRLEIGYVALGVLLAITGREQDAADALDKAEALNPNNAVLHFGRCHACLFMQRLDCDRLERAARTALRLNPKDPMAWGFWFQLGNAFTFRDIDAAEPEALAAYETACRFANADYFVFMATALKHAKLGNRDKAAHYLAQARERYPALTAEFWRRAFRFPIWSRWVAADEPNIQLLIDLGLPQK,failed
3,MERVAVVGVPMDLGANRRGVDMGPSALRYARLLEQLEDLGYTVEDLGDVPVSLARASRRRGRGLAYLEEIRAAALVLKERLAALPEGVFPIVLGGDHSLSMGSVAGAARGRRVGVVWVDAHADFNTPETSPSGNVHGMPLAVLSGLGHPRLTEVFRAVDPKDVVLVGVRSLDPGEKRLLKEAGVRVYTMHEVDRLGVARIAEEVLKHLQGLPLHVSLDADVLDPTLAPGVGTPVPGGLTYREAHLLMEILAESGRVQSLDLVEVNPILDERNRTAEMLVGLALSLLGKRIF,not failed
4,MERYTKKNERFKAEEGKGSKKSRTFLTERERRALFNDRFFDLKNLIPNPTKGGEASIVQDGIVYINELQRLVSELKYLVEKKKCGARHNNIEVDNKNTIYGTSKIEHPFSKNKNTFNCLIRTLRFVHHF,failed
5,MESAPSRLDGDRPRLSVRLLGPLEILRDGVPLALPASRKLRALLAYLALAPHAVGRGRLCELLWDVPNDPRGELRWCLSKLRAALDTPDRRRVTTQGDAVALDLDGCLVDALEISQAAAQGIATLDVERLQGLAGLFAGDLLDGLELERSPHFDSWLVAQRRRFDAYHAAVLEQLAASLPADCDETVSRLDRWIELAPFDTRAHAALLASLARRGEIGAAEQHLASAERLFQSEDLDFAPLRQAWRSIRDQRASHQAQPAGLPTPSHLVAASGDTGPVEPSHASLAVMPFVDESGARGGLADGFTHDIITRLAKLRDFFVIARGSVFALAEKAIAPEEAGRKLGVDYVASGTVRSLTGRLIVSVELVEVRTARIVWAETFERRPHDLFAVLDDIGDSIVSSISAEIETVERNRAMLKAPNSLNAWEAYHRGLWHMYRFTQAENEQARHFFDKALQLDPTFARAYAGLSFTHWQNAFQRWGDRDRESALAYESAGHSLLVDDHNPAAHWAMGRALWLRGEQDGSLAELERAVDLSPNFALGHYALSFVHSQSGDPQAAIGSSDHSRHLSPFDPLLFGMLGSRAMSHVRLGQFEEAAEWALKAAARPNAHTIILAIAAHCLALAGRLDEARGFAAAIRKTLPDYRADDFIGTFRFDPDAEALFRQGARRIGFS,failed
6,MESESSGLSFPLGLYDAIIAHARSVFPEECCGLVAAPAGGAPIRVIPMENALHSPVRYEMNPKEQFQVQKNLRREGLEMWAIYHSHPVTRPYPSETDIRLAFYPELYYLLTSLAEDPPPLKAYTIQNGVVREIPLKVSPGES,failed
7,MESNLTYTEALLKLEEIVEQIEDDSIMLDTLTEKVMQANELIKYCETKLRTIEGDVRDVLQ,failed
8,MESVRIEQMLSLPAEVSSDNLESAERGASAAQVDMGPHPKVAAEGPAPLPTREPEQEQSPGTSTPESKVLLTQADALASRGRIREALEVYRQLSERQQLVAEQLEQLVRCLAEKVPQGEALAPAPPDEGSTASGTVAAEETGAAAAAAATEVWDGFKCRKCHGFLSDPVSLSCGHTFCKLCLERGRAADRRCALCGVKLSALMVATGRARGARRAGQQPPPPLRVNVVLSGLLGKLFPGPARASQLRHEGNRLYRERQVEAALLKYNEAVKLAPNDHLLYSNRSQIYFTLESHENALHDAEIACKLRPMGFKDNLELPHCSSQEEAAARGDGSSLMDPAKVKGDGQQHHMKDQEEEEEKWDATSPKAASSKTGKCQEKKRKHCQIESQEETGMPNKASKQDPPTDQGDKPALSLPLASFDASDLECALCMRLFYEPVTTPCGHTFCLKCLERCLDHNAKCPLCKDGLSQCLASRKYSKNVIMEELIAKFLPEELKERRKLYEEEMEELSNLNKNVPIFVCTMAYPTVPCPLHIFEPCYRLMIRRCIETGTRQFGMCLGDPVKGFAEYGCILEIRNVQFFADGRSVVDSIGKRRFRVLHQSQRDGYNTADIEYIEDQKVQGEDCAELMGLHNCVYQQASLWFHSLKLSLKNRILNHFGPMPEKDADPQMNPNGPAWCWWMLAVLPLESRAQLPFLAMRSLKDRLNGIRRVLAFISRNQN,failed
9,MESYSPAQTCLELVPVLADDSISAASTSDVQDRLSALESRVQQQEDEITVLKAALADVLRRLAISEDHVASVKKSMPSKGQPSLREAISMSCITNGSGINRKQNHTSSISIARKETLSSAAKSGTEKKKEKPQGQREKKEESHSNDQSPQIRASPSPQPSSQPLQINRQTPESKSSAPTKSIKRPPTAEKSHNSWENSDDSRNKLLKTVSTSKLISKVIKNTDKHKDVIINQAKMSTREKSSQEGEYIKMFMRGRPITMFIPSDVDNYDDIRTELPPEKLKLEWVYGYRGKDCRANVYLLPTGEIVYFIASVVVLFNYEERTQRHYLGHTDCVKCLAVHPDKIRMATGQIAGVDKDGRPLQPHVRVWDSVSLSTLHVIGLGTFERGVGCLDFSKADSGVHLCVIDDSNEHMLTVWDWQRKSKVAEIKTTNEVVLAVEFHPTDANTIITCGKSHIFFWTWSGNSLTRKQGIFGKYEKPKFVQCLAFLGNGDVLTGDSGGVMLIWSKTTIEPPPGKGPKGVYQISRQIKAHDGSVFTLCQMRNGMLLTGGGKDRKIILWDHDLNLEREIEVPDQYGTIRAVAEGKAEQFLVGTSRNFILRGTFNDGFQIEVQGHTDELWGLATHPFKDLLLTCAQDRQVCMWNSVEHRLEWTRLVDEPGHCADFHPSGTVVAIGTHSGRWFVLDAETRDLVSIHTDGNEQLSVMRYSVDGTLLAVGSHDNFIYLYAVSENGRKYSRYGKCTGHSSYITHLDWSPDNKHIMSNSGDYEILYWDIENGCKLIRNRSDCKDIDWTTYTCVLGFQVFGVWPEGSDGTDINALVRSHHRRVIAVADDFCKVHLFQYPCSKPKAPSHKYSAHSSHVTNVSFTHNDSHLISTGGKDMSIIQWKLVEKLPLPQNEVIADTSSTKAPASATENARLCNAPQPPSQPLPGTAEEESRVSSSPTLVENSLEQSEWGSEDLGVVIDEEPASERGEKQGAAEASEEEQGAAPLC,failed
10,METESIKLDVQVTTTSQDPSLGLLSTVIITLDRDLEEYDENVDSIKSLGSYPDSSTPDESLIILKLPTSEPDYIYLTLRSKLKDHLHDHVLSEEIADQIFEAQLGTQSIDQFPFQQPLFMLVSVKLTQKLYTYAPCNASPLATDLTKRAK,failed
11,METGTHVRDVIFPGGNAAPDAGSVVAAIHQLPTLRLLSLDAHGRVLDWINWQDAACLYARDAVSWTLGEPCMQIHGGISRLTGERSTLELHPIIAARGHARSRALDPTPTLSNTALFARDAQLCMYCGQHFSRPHLTRDHVMPVSKGGRDSWENVVTACFQCNSRKANRTPQQAHMPLLAVPYRPSWIEHLILSNRNILSDQMAFLRAQLPKRSKLSLQAGAPRVADPG,failed
12,METKQDNLIYVWDAYCGWCYGFSESIKGFYKNHTEVPLTVLCGGLFLDNLPMKNFSYIEEGNKRINQLTGAEFGPSYQKLVEEGTFKMNSKDAAIGFSALRSLAPDRLLEFTSAMQKAFYYEGQSLSDPETYRKIAIEHGLDPEQVLERLNAQETIIDVQNDFNKVRQLGVNSYPSLLLQKDNQIIPIGGGVMTPDKIEARFKNLY,failed
13,METLSDVFATFSQRGDTTAFVHRTGVRRYVFTYLDLHALSLRMNRWLADQGVGEGDRVVLWGPNSPWWAVAFWGIVTRGAVAVPVDFMSGAERAEIIAGLTDAKLVIQSRDKLDRLTGRPSVLLEELGFLLEAVEPLATTHRPAPDDMAELIYTSGTTGNPKGVILTHRNLVANILQVNRHIPVVTPDFSFLSLLPLSHMFEQMGGFFTPLYRGAAIVYIRTLKPSAIMEALGEEDIYAIIAVPRLLQLLKGSVERELEAKGLGSIFRWLLKVGERMSRGGRSVLFRPIQRKFGRNFALFVSGGAPLDPEVFRFWNGLGFRVVEGYGLTECSPVLTANTMERQVMGSVGTPLDGVELRLEEGEILARGDNIFPGYFRNEEATRGAFVDGWFRTGDLGELDPDGWLRIKGRSKELIVTGAGVNVYPDEIEAILNRTQGVREGCVIGLDRGKGEEVHGVLILDGSGRPTEEIVNEVNAKFDELHRITSFSVWPEAEFPKTTTLKIRKFQVKERIEQGGGALGDGRGADRLTALVATITGSPLEQVTEGALLVNDLGLTSIARLELVNALEMEFRLDLEDSVIGPQTRVADLREIVSRREKVHIREHFRIWAMGGVALAVRRLLDTVLHGPLLRAFVTLKSLGIENLEAADGPVMFVSNHLSYLDQPAIMCVLPDAWRYNTATAAWEEFFFRNFKNLPQRLWKRFTYEYASVAFTVFPLPQSRGFRGALHFMGTLADQGMNILLFPEGERSRDGRLLPFQQGLGVMIRELGVPVVPVRIRGLEKVLPRGASWPQKGEVSITFGKPIHFRGESPTEIVDRARRAVEDLLEHHHHHH,failed
14,METNKNFAVIGLGEFGSRICEVLVDGGASVVAFDHDIQAVERIKKIVPAAMLVETTNEEALLKAPLDDVEVAIVAIGNNIEASVLTTTLLKQRDIPYVLARAVSPLHATVLRRVGANEVLNIEISAATRIARRLISPDVMDSIAVTKDFSIREIIVPKFFIGKTVGSVALKEKFNITLIALVRMALDIDSVGNPVKQEVMHYPEDDFELREGDKLFLIGSNIKLEEFRNM,failed
15,METPYHQRWLAFPDAVSSYRPLESRLAGTSRATADNRTPCTGRLGTPRVFLMATDDVSKAYSSPTFDAEALLGTVISAEDPDRVLIEPWATGVDGVILDVGSGTGRWTGHLASLGHQIEGLEPATRLVELARQTHPSVTFHHGTITDLSDSPKRWAGLLAWYSLIHMGPGELPDALVALRMAVEDGGGLLMSFFSGPSLEPMYHPVATAYRWPLPELAQALETAGFQVTSSHWDPRFPHAYLTAEASLEHHHHHH,not failed
